Data published in patent US20230399361A1, “MACROCYCLIC PEPTIDES” (UNIVERSITY OF NOTRE DAME DU LAC, priority 2022, published 2023).
*1 amine or outer side, *2 acyl side, *3 side chain or, on linkers, in order; H or OH if unused. Where a SMILES comes first, the peptide text is derived from it. Primed or numbered codes have the meaning given here. [ ]: non-standard residue; d: D form. aTyr = Tyr with an NH2 on the backbone amide nitrogen (N-amino residue), NN([C@@H](Cc1ccc(O[*:3])cc1)C(=O)[*:2])[*:1]; aIle″ = Ile with an NH2 on the backbone amide nitrogen (N-amino residue), CC[C@H](C)[C@@H](C(=O)[*:2])N(N)[*:1]; aVal″ = Val with an NH2 on the backbone amide nitrogen (N-amino residue), CC(C)[C@@H](C(=O)[*:2])N(N)[*:1]; N(NH2)Lys = NCCCC[C@H](NN)C(=O)O

Key:
[1] = target: T1, tauP301L (Homo sapiens, UniProt P10636, P618L); assay: ThT fluorescence aggregation assay of recombinant tauP301L; assay type: biochemical; settings: 20 μM NAP (2-fold molar excess), 10 μM tauP301L, heparin, 48 h
T1 construct: we expressed and purified full-length tau featuring a P301L mutation; His6 (N); made in house; host or cells: E. coli BL21 (DE3)
T1 sequence (P10636 1-383 isoform P10636-6 P243L): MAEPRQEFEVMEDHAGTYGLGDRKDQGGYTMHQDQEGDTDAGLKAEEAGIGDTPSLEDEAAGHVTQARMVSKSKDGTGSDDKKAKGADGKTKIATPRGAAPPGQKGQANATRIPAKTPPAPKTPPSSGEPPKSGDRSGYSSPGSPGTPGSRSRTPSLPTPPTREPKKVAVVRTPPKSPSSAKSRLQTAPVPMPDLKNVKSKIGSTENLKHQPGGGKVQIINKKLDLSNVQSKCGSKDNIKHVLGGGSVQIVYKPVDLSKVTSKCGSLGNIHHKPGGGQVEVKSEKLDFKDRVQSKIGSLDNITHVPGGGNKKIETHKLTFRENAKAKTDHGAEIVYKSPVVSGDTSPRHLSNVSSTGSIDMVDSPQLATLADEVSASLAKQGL
Text: (§1) NAP Tau Mimics Inhibit Tau Fibrilization In Vitro. We chose thioflavin T (ThT), an amyloid specific fluorescent dye that binds to β-sheet assemblies, to first evaluate the effect of NAPs on recombinant tau aggregation. For these studies, we expressed and purified full-length tau featuring a P301L mutation frequently observed in patients with frontotemporal dementia and Parkinsonism linked to chromosome 17 (FTDP-17). This missense mutation leads to local structure destabilization around the amyloid-forming region resulting in faster aggregation. Recombinant tauP301L aggregated in the presence of equimolar heparin sulfate (t1/2=6.5±0.4 h) starting with a very short 0.5 h lag phase, followed by a 24 h exponential growth phase. […] Compounds 2 and 4 are mono- and diaminated hexapeptides derived from the R2 PHF6* aggregation-prone sequence, whereas compounds 5, 6, 12, and 13 are all derived from the R3 PHF6 sequence. Several other NAPs had no effect on endpoint ThT fluorescence or lacked consistent inhibition across repeated experiments. […] NaOAc buffer, as evidenced by intense ThT fluorescence after 48 h (FIG. 1B).
Inhibition of full-length tau aggregation by mxyl-NAPs in a ThT assay. […] TauP301L ([…]) aggregated upon incubation with heparin over the course of 2 days, leading to high ThT fluorescence. […] We also synthesized linear and scrambled controls corresponding to each of the NAP inhibitors.
ThT Fluorescence Aggregation Assay. Recombinant tauP301L (10 μM final concentration) and NAP inhibitors (20 μM final concentration) were mixed in an aggregation buffer (100 mM sodium acetate, 10 μM ThT, 10 μM heparin, 2 mM DTT, and 0.5% DMSO, pH: 7.4) in a 96-well clear bottom black plate with a final reaction volume of 200 μL. The plate was then sealed with a clear sealing film and allowed to incubate at 37° C. with continuous shaking in a Biotek Synergy H1 microplate reader. An automated method was used to carry out ThT fluorescence measurements at an excitation wavelength of 444 nm and an emission wavelength of 485 nm at an interval of every 5 min for 48 h. Experiments were carried out in technical replicates on at least 2 different days. Every experiment included control wells that lacked tauP301L, heparin, or NAPs. The average signal from control wells lacking tau was used to subtract the background fluorescence, and the average of the first and last 10 data points of tau+heparin (no inhibitor) wells, after blank subtraction, was used to normalize the data. All data plots were generated with SigmaPlot.

[2] = Self-aggregation of peptides alone by ThT fluorescence; assay type: physicochemical; settings: incubated alone in aq. NaOAc buffer, 48 h
Text: as §1
Design and synthesis of aggregation-resistant backbone-aminated derivatives of mxyl-AD. The data above support the hypothesis that mxyl-AD mimetic macrocycle can engage in native-like hydrophobic cross-b interactions as well as edge-to-edge H-bonds along the fibril axis. We next sought to employ mxyl-AD as a template for the design of tau seeding inhibitors that could potentially cap fibril growth and block propagation. This required us to incorporate a chemical modification onto mxyl-AD that would preclude its ability to self-assemble without disrupting its capacity to adopt the conformation required to bind tau. We therefore designed two backbone N-amino peptide (NAP) derivatives of our tau mimic, mxyl-NAP1 and mxyl-NAP2 (Scheme 1). Each of these analogues features a backbone amide substitution that precludes canonical b-sheet H-bonding along one edge of the macrocycle, while leaving the other edge intact to engage the tau protein. […] Both mxyl-NAP1 and mxyl-NAP2, which feature a single backbone N-amino group within the amyloidogenic PHF6 module, were prepared on solid support starting from Fmoc-protected N-amino dipeptides.

[3] = target: T1, tauP301L; assay: Transmission electron microscopy of heparin-induced tauP301L fibrils; assay type: biochemical; settings: 10 μM tauP301L + heparin, 20 μM NAP (2-fold molar excess), 96 h
Protocol: This is consistent with previous reports showing that the endpoint ThT fluorescence and fibrilization lag time for full-length tau are particularly resistant to perturbation by inhibitors. […] To confirm the effect of NAPs on the growth of mature tau fibrils, we used transmission electron microscopy (TEM) to visualize the morphology and maturity of fibrillar species. Heparin-induced tauP301L fibrils were allowed to grow over 96 h in the presence or absence of inhibitors. Untreated tauP301L afforded large, helical, and amyloid-like filamentous fibrils.
Inhibition of full-length tau fibrilization by mxyl-NAPs in TEM. To confirm the results from ThT assays, we used TEM to visualize tauP301L fibrils in the absence or presence of synthesized NAPs. As expected, heparin-induced tauP301L formed dense networks of mature fibrils (FIG. 8).
Transmission Electron Microscopy. For analyzing fibrils by TEM, aggregation was carried out under conditions similar to the assay performed above but with ThT excluded and a final reaction volume of 100 μL. Samples were incubated in a microcentrifuge tube for 4 days at 37° C. with a mixing speed of 100 rpm. A 10 μL aliquot of the sample was then applied to 400-meshed formvar-/carbon-coated copper grids and negative-stained with 2% uranyl acetate. Micrographs were obtained on a JEOL 2011 transmission electron microscope at 200 kV.

[4] = target: T2, AcPHF6 (Homo sapiens, UniProt P10636); settings: Chem. Eur. J. 2017, 23, 9618; cited from earlier work
T2 construct: AcPHF6; Ac-Val-Gln-Ile-Val-Tyr-Lys-NH2; 790.4833

[5] = Human serum stability assay; settings: after 24 h, 37° C., HPLC
Protocol: Human Serum Stability Assay. The stability of NAPs in 25% human serum (MilliporeSigma) was assessed by HPLC. The reaction was started by adding NAPs at a final concentration of 500 μM in pre-warmed serum. The mixture was incubated at 37° C. for 24 h. A 100 μL aliquot of the reaction mixture was taken out at 0, 1, 4, and 24 h and was mixed with an equal volume of 20% trichloroacetic acid and incubated at 4° C. for 15 min to precipitate serum proteins. After centrifugation at 12,000 rpm for 10 min, the supernatant was collected and mixed with an internal standard (1 mg/mL Cbz-Tyr-OH dissolved in MeCN) and stored at −20° C. Samples were then analyzed by LC-MS, and the percentage of peptide remaining was calculated by integrating peaks.

[6] = target: Human tauP301L (0N4R) with an N-terminal His6 tag (human), P10636; assay: cell-based or functional assay
Chain of Human tauP301L (0N4R) with an N-terminal His6 tag (human), P10636 (P10636 other isoform, or with tags, fused parts or gaps): as the sequence (P10636 1-383 isoform P10636-6 P243L) above, with L243P counted along it

With “Ac-Val-Gln-aIle-Ile-Asn-Lys-NH2 (Ac-VQ[aIle″]INK-NH2) [Compound 2]” the “endpoint ThT fluorescence of tauP301L” value [1] was “significantly reduce”, the “self-aggregation, ThT fluorescence of peptide alone” value (shortened to “self-aggregation, ThT fluorescence”) [2] was “no such fluorescence” and the “tauP301L fibril morphology by TEM” value [3] was “short, immature rod-like fibrils”.

For “Ac-aVal-Gln-Ile-Val-Tyr-Lys-NH2 (Ac-[aVal″]QIVYK-NH2) [Compound 5]”, the “endpoint ThT fluorescence of tauP301L” value [1] was “significantly reduce”, the “self-aggregation, ThT fluorescence” value [2] was “no such fluorescence” and the “tauP301L fibril morphology by TEM” value [3] was “short, immature rod-like fibrils”.

For “Ac-VPIVYK-NH2 [proline-containing analogue of PHF6 from the literature (Segal and co-workers)]”, the “aggregation of AcPHF6 in vitro” value [4] is given as “inhibits the aggregation”.

With `CC[C@H](C)[C@H](NC(=O)[C@@H](N)CC(C)C)C(=O)N[C@H](C(=O)N[C@@H](CCCNC(=N)N)C(=O)N[C@@H](CC(C)C)C(=O)N[C@@H](CCC(=O)O)C(=O)N[C@@H](CC(N)=O)C(=O)N[C@H](C(N)=O)[C@@H](C)O)[C@@H](C)O` [H-LITRLENT-NH2] (H-LITRLENT-NH2) the “intact peptide in 25% human serum” value [5] was “rapidly degraded”.

In the case of “Ac-Val-Gln-aIle-Val-Tyr-Lys-NH2 (Ac-VQ[aIle″]VYK-NH2) [Compound 6]”, the “endpoint ThT fluorescence of tauP301L” value [1] is reported as “significantly reduce”, the “self-aggregation, ThT fluorescence” value [2] is reported as “no such fluorescence” and the “tauP301L fibril morphology by TEM” value [3] is reported as “short, immature rod-like fibrils”.

In the case of Ac-VQ[aIle″]V[aTyr]K-NH2 [Ac-Val-Gln-aIle-Val-aTyr-Lys-NH2 (12)], the fibril capping IC50 in cells (seeding of tau-RD(LM)-YFP in HEK293 biosensor cells by pre-formed tauP301L fibrils) [6] is reported as 5 µM.

Work on Ac-VQI[aVal″]Y[N(NH2)Lys]-NH2 [Ac-Val-Gln-Ile-aVal-Tyr-aLys-NH2 (13)] yielded a fibril capping IC50 in cells (seeding of tau-RD(LM)-YFP in HEK293 biosensor cells by pre-formed tauP301L fibrils) [6] of 5 µM.
